This passage reports binding result and activity results from US5741673, “Nucleic acid encoding a novel homeobox factor which stimulates insulin expression in pancreatic islet cells” (Research Development Foundation).

The target of series [1] is ITF-1 fragment aa 124-283 (thrombin-cleaved from GST fusion) (rat, UniProt P52947 SEQ:124-283). The series can be described thus: footprint; DNase I; also bound in EMSA. Particulars: tags: GST removed by thrombin. Background: In EMSA bound probe runs differently from free probe, usually more slowly.
Series [2] addresses T1, ITF-1 full length (CMV expression) (rat, UniProt P52947 SEQ:1-283). The series can be described thus: cell_activity; TSE I somatostatin reporter in HeLa cells.
Series [3] addresses T1, ITF-1 full length (CMV expression). The series is described as follows: cell_activity; TSE II somatostatin reporter in HeLa cells.

T1 sequence (P52947 whole entry): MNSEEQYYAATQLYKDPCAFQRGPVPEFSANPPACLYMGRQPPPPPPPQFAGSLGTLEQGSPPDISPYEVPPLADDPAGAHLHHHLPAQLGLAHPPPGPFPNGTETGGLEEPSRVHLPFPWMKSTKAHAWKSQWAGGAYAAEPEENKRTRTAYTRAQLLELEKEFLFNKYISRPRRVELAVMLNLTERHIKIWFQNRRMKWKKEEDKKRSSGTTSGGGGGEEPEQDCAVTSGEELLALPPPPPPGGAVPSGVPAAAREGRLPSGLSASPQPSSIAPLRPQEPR
Sequence of ITF-1 fragment aa 124-283 (thrombin-cleaved from GST fusion) (P52947 124-283): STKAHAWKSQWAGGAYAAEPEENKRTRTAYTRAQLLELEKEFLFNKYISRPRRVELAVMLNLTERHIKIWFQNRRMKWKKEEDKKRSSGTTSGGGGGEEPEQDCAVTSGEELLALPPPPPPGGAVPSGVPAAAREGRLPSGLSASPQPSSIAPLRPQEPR

B1: rat insulin I P-Box (dsDNA)
DNA 1: CTTAATGGGCCAAACGGCA
DNA 2: TGCCGTTTGGCCCATTAAG
For B1, in series [1], the binding result was “binds”.

B2: rat insulin I FLAT (E2) (dsDNA)
DNA 1: TTAATAATCTAATTACCC
DNA 2: GGGTAATTAGATTATTAA
Regarding B2, in series [1], the binding result is given as “binds”.

B3: somatostatin TSE I (dsDNA)
DNA 1: TTGCGAGGCTAATGGTGCG
DNA 2: CGCACCATTAGCCTCGCAA
In series [2], B3 returned an activity of around 12 fold.

B4: somatostatin TSE II (dsDNA)
DNA 1: GATCTCAGTAATAATCATGCAG
DNA 2: CTGCATGATTATTACTGAGATC
Turning to B4, the activity in series [3] was around 12 fold.
